Assay results published in patent US20260209386A1 (MYTHIC THERAPEUTICS, published 2026).

Legend:
[1] = biological target: T1, Human PTK7 (human, UniProt Q13308 31-1070); assay: cell-based or functional assay
T1 sequence: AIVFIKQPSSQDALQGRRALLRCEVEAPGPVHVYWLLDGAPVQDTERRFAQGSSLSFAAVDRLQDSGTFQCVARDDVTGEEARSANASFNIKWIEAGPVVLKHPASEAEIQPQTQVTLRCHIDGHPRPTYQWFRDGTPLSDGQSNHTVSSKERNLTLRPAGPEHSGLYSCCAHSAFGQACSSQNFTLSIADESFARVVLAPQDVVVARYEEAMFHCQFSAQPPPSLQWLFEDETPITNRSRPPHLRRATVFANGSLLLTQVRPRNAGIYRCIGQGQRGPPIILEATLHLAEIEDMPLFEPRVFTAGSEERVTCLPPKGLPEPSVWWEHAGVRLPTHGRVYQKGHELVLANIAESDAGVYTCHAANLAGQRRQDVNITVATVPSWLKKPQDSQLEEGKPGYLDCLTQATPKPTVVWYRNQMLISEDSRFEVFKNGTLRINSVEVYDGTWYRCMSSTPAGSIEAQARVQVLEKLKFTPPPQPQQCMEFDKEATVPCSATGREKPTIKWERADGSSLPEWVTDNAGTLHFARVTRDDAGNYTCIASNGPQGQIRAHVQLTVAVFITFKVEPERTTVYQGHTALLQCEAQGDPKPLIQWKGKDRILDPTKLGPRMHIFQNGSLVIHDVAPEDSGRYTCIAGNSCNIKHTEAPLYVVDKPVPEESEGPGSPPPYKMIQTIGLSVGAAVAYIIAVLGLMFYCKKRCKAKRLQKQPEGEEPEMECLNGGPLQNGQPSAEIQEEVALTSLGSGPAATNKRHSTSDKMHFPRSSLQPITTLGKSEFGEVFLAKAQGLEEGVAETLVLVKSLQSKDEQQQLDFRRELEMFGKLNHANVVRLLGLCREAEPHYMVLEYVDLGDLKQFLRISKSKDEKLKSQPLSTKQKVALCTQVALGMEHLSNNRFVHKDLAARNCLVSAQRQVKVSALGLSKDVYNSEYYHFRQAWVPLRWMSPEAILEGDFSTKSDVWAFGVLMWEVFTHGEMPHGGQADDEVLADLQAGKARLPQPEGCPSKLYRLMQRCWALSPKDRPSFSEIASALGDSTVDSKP

[2] = biological target: T2, Human PTK7 Protein, His Tag (Acro Biosystems) (human, UniProt Q13308 31-704); assay: BLI (Octet), antibody on anti-human Fc sensor, 50 nM PTK7; grade 2 = substantially similar binding relative to parent
T2 construct: Bought His-tagged protein; also called CCK4; not shown: His tag
T2 sequence: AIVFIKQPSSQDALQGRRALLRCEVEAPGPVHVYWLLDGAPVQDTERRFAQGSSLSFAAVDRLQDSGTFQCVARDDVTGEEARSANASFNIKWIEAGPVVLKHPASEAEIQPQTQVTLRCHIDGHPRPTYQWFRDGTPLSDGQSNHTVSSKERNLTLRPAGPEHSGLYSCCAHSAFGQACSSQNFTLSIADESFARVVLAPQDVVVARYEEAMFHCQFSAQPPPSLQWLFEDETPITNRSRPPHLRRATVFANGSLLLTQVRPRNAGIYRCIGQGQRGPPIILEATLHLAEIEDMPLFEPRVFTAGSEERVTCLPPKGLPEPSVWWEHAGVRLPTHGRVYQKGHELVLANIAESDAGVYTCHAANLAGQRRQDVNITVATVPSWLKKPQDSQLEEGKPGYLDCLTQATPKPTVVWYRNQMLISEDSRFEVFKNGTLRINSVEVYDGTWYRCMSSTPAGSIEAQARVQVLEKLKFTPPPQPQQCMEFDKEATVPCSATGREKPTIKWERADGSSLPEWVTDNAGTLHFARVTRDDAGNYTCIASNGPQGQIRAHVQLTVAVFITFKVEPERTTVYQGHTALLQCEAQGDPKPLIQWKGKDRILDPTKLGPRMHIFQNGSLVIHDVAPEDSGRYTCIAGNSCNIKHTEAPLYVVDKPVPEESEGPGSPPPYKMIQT

Binder | Internalization, FOW @ 25 nM (fold over the wildtype, parental antibody) [1] | binding result [2]
MYT11332 (antibody, V domains shown) VH: EVQLVESGGGLVQPGGSLRLSCTASGIDLSRYSMGWVRQAPGKGLEWVGIISYGGSTYYASWAKGRFTISRDTSKNTVYLQMNSLRAEDTAVYFCARVGYPGYSGYGYAFDAFDPWGQGTLVTVSS VL: EIVMTQSPSTLSASVGDRVIITCQSSKSVYNDNWLSWYQQKPGKAPKLLIYGASTLASGVPSRFSGSGSGAEFTLTISSLQPDDFATYYCAGGYSSSSHNGFGQGTKLTVL | 1.77 fold over parental antibody | –
MYT11337 (antibody, V domains shown) VH: EVQLVESGGGLVQPGGSLRLSCTASGIDLSRYSMGWVRQAPGKGLEWVGIISYGGSTYYASWAKGRFTISRDTSKNTVYLQMNSLRAEDTAVYFCARVGYPGYSGYGYAFDAFDPWGQGTLVTVSS VL: EIVMTQSPSTLSASVGDRVIITCQSSKSVYNDNWLSWYQQKPGKAPKLLIYGASTLASGVPSRFSGSGSGAEFTLTISSLQPDDFATYYCAGGYSSSSANGFGQGTKLTVL | 1.68 fold over parental antibody | –
MYT11027 (antibody, V domains shown, MYT9361 HC variant) VH: EVQLVESGGGLVQPGGSLRLSCTASHLSLSSYWMSWVRQAPGKGLEWVGVISAGGNTYYANWAKGRFTISRDTSKNTVYLQMNSLRAEDTAVYFCARGDDGYTNAAYVSNLWGQGTLVTVSS VL: EIVMTQSPSTLSASVGDRVIITCQASQSISSWLSWYQQKPGKAPKLLIYKASTLASGVPSRFSGSGSGAEFTLTISSLQPDDFATYYCQSYFDSTTIAFGQGTKLTVL | – | binds
MYT11028 (antibody, V domains shown, MYT9361 HC variant) VH: EVQLVESGGGLVQPGGSLRLSCTASGHSLSSYWMSWVRQAPGKGLEWVGVISAGGNTYYANWAKGRFTISRDTSKNTVYLQMNSLRAEDTAVYFCARGDDGYTNAAYVSNLWGQGTLVTVSS VL: EIVMTQSPSTLSASVGDRVIITCQASQSISSWLSWYQQKPGKAPKLLIYKASTLASGVPSRFSGSGSGAEFTLTISSLQPDDFATYYCQSYFDSTTIAFGQGTKLTVL | – | binds
MYT11032 (antibody, V domains shown, MYT9361 HC variant) VH: EVQLVESGGGLVQPGGSLRLSCTASGLSLSHYWMSWVRQAPGKGLEWVGVISAGGNTYYANWAKGRFTISRDTSKNTVYLQMNSLRAEDTAVYFCARGDDGYTNAAYVSNLWGQGTLVTVSS VL: EIVMTQSPSTLSASVGDRVIITCQASQSISSWLSWYQQKPGKAPKLLIYKASTLASGVPSRFSGSGSGAEFTLTISSLQPDDFATYYCQSYFDSTTIAFGQGTKLTVL | – | binds
MYT11030 (antibody, V domains shown, MYT9361 HC variant) VH: EVQLVESGGGLVQPGGSLRLSCTASGLSHSSYWMSWVRQAPGKGLEWVGVISAGGNTYYANWAKGRFTISRDTSKNTVYLQMNSLRAEDTAVYFCARGDDGYTNAAYVSNLWGQGTLVTVSS VL: EIVMTQSPSTLSASVGDRVIITCQASQSISSWLSWYQQKPGKAPKLLIYKASTLASGVPSRFSGSGSGAEFTLTISSLQPDDFATYYCQSYFDSTTIAFGQGTKLTVL | – | binds
MYT11029 (antibody, V domains shown, MYT9361 HC variant) VH: EVQLVESGGGLVQPGGSLRLSCTASGLHLSSYWMSWVRQAPGKGLEWVGVISAGGNTYYANWAKGRFTISRDTSKNTVYLQMNSLRAEDTAVYFCARGDDGYTNAAYVSNLWGQGTLVTVSS VL: EIVMTQSPSTLSASVGDRVIITCQASQSISSWLSWYQQKPGKAPKLLIYKASTLASGVPSRFSGSGSGAEFTLTISSLQPDDFATYYCQSYFDSTTIAFGQGTKLTVL | – | binds
MYT11035 (antibody, V domains shown, MYT9361 HC variant) VH: EVQLVESGGGLVQPGGSLRLSCTASGLSLSSYWHSWVRQAPGKGLEWVGVISAGGNTYYANWAKGRFTISRDTSKNTVYLQMNSLRAEDTAVYFCARGDDGYTNAAYVSNLWGQGTLVTVSS VL: EIVMTQSPSTLSASVGDRVIITCQASQSISSWLSWYQQKPGKAPKLLIYKASTLASGVPSRFSGSGSGAEFTLTISSLQPDDFATYYCQSYFDSTTIAFGQGTKLTVL | – | binds
MYT11038 (antibody, V domains shown, MYT9361 HC variant) VH: EVQLVESGGGLVQPGGSLRLSCTASGLSLSSYWMSWVRQAPGKGLEWVGVHSAGGNTYYANWAKGRFTISRDTSKNTVYLQMNSLRAEDTAVYFCARGDDGYTNAAYVSNLWGQGTLVTVSS VL: EIVMTQSPSTLSASVGDRVIITCQASQSISSWLSWYQQKPGKAPKLLIYKASTLASGVPSRFSGSGSGAEFTLTISSLQPDDFATYYCQSYFDSTTIAFGQGTKLTVL | – | binds
MYT11037 (antibody, V domains shown, MYT9361 HC variant) VH: EVQLVESGGGLVQPGGSLRLSCTASGLSLSSYWMSWVRQAPGKGLEWVGHISAGGNTYYANWAKGRFTISRDTSKNTVYLQMNSLRAEDTAVYFCARGDDGYTNAAYVSNLWGQGTLVTVSS VL: EIVMTQSPSTLSASVGDRVIITCQASQSISSWLSWYQQKPGKAPKLLIYKASTLASGVPSRFSGSGSGAEFTLTISSLQPDDFATYYCQSYFDSTTIAFGQGTKLTVL | – | binds
MYT11036 (antibody, V domains shown, MYT9361 HC variant) VH: EVQLVESGGGLVQPGGSLRLSCTASGLSLSSYWMHWVRQAPGKGLEWVGVISAGGNTYYANWAKGRFTISRDTSKNTVYLQMNSLRAEDTAVYFCARGDDGYTNAAYVSNLWGQGTLVTVSS VL: EIVMTQSPSTLSASVGDRVIITCQASQSISSWLSWYQQKPGKAPKLLIYKASTLASGVPSRFSGSGSGAEFTLTISSLQPDDFATYYCQSYFDSTTIAFGQGTKLTVL | – | binds
MYT11034 (antibody, V domains shown, MYT9361 HC variant) VH: EVQLVESGGGLVQPGGSLRLSCTASGLSLSSYHMSWVRQAPGKGLEWVGVISAGGNTYYANWAKGRFTISRDTSKNTVYLQMNSLRAEDTAVYFCARGDDGYTNAAYVSNLWGQGTLVTVSS VL: EIVMTQSPSTLSASVGDRVIITCQASQSISSWLSWYQQKPGKAPKLLIYKASTLASGVPSRFSGSGSGAEFTLTISSLQPDDFATYYCQSYFDSTTIAFGQGTKLTVL | – | binds
MYT11031 (antibody, V domains shown, MYT9361 HC variant) VH: EVQLVESGGGLVQPGGSLRLSCTASGLSLHSYWMSWVRQAPGKGLEWVGVISAGGNTYYANWAKGRFTISRDTSKNTVYLQMNSLRAEDTAVYFCARGDDGYTNAAYVSNLWGQGTLVTVSS VL: EIVMTQSPSTLSASVGDRVIITCQASQSISSWLSWYQQKPGKAPKLLIYKASTLASGVPSRFSGSGSGAEFTLTISSLQPDDFATYYCQSYFDSTTIAFGQGTKLTVL | – | binds
MYT11346 (antibody, V domains shown) VH: EVQLVESGGGLVQPGGSLRLSCTASGIDLSNYHVIWVRQAPGKGLEWVGIIYTYDTTYYANWAKGRFTISRDTSKNTVYLQMNSLRAEDTAVYFCARSFSDISDLIKLWGQGTLVTVSS VL: EIVMTQSPSTLSASVGDRVIITCQASQSLYNNKDLAWYQQKPGKAPKLLIYEASKLASGVPSRFSGSGSGAEFTLTISSLQPDDFATYYCLGEFSCGSGDCLAFGQGTKLTVL | 1.16 fold over parental antibody | –
MYT11418 (antibody, V domains shown) VH: EVQLVESGGGLVQPGGSLRLSCTASGIDLSNYAVIWVRQAPGKGLEWVGIIYTYDTTYYANWAKGRFTISRDTSKNTVYLQMNSLRAEDTAVYFCARSFSDISDLIKLWGQGTLVTVSS VL: EIVMTQSPSTLSASVGDRVIITCQASQSLYNNKDLAWYQQKPGKAPKLLIYAASKLASGVPSRFSGSGSGAEFTLTISSLQPDDFATYYCLGEFSCGSGDCLAFGQGTKLTVL | 1.19 fold over parental antibody | –
